Reference: patent publication US20050215472A1
Several values for one entry are separate records, joined by “and”; a condition that tells them apart may be missing. Equal values may be shown once.

Legend:
[1] = biological target: prostate specific membrane antigen (PSMA), full-length human (human) (UniProt Q04609); test: cell-bound fraction of 111In mAb, PSMA-3T3 cells
[2] = biological target: prostate specific membrane antigen (PSMA), full-length human (human) (UniProt Q04609); test: cell-bound fraction of 111In mAb, average
[3] = biological target: prostate specific membrane antigen (PSMA), full-length human (human) (UniProt Q04609); test: cell-based or functional assay

Chain of prostate specific membrane antigen (PSMA), full-length human (human) (Q04609 whole entry): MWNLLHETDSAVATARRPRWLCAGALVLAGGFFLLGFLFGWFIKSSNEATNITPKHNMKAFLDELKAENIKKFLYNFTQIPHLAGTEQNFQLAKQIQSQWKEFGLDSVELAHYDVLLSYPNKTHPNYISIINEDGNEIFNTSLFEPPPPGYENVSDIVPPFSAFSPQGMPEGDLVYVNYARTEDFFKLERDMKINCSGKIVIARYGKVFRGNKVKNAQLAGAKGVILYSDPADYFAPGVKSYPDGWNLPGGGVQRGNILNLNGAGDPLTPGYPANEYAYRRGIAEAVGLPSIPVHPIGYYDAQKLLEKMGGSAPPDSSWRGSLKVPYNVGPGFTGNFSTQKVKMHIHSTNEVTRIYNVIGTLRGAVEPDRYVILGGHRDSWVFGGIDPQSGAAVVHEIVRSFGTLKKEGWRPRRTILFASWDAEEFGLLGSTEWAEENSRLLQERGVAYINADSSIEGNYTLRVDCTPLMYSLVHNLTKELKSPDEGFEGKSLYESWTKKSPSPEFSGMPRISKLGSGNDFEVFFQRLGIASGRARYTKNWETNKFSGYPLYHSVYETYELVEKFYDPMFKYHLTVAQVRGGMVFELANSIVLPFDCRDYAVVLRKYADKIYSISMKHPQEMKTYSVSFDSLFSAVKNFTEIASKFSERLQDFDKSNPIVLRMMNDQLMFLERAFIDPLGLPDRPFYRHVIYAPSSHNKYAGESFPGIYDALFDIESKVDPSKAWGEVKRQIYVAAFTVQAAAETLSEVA

Row | Immunoreactivity (%) [1] | Immunoreactivity (%), average [2] [%] | Substance | LD50, immunotoxin (Mab-Zap saporin) cytotoxicity on C4-2 cells [3] [pM] | LD50, immunotoxin (Mab-Zap saporin) cytotoxicity on PSMA-3T3 cells [3] [pM]
1 | 58.5% and 54.9% | 56.7 | 111In radiolabeled CHX-A''-DTPA mJ591 (antibody) |  | 
2 |  |  | mAb J591 (antibody) | 88.2 | 89
